Test results taken from paper PMC7418988, “IgaA negatively regulates the Rcs Phosphorelay via contact with the RcsD Phosphotransfer Protein” (PLoS Genetics, 2020).

B1: RcsD fused to the T25 or the T18 fragment of adenylate cyclase (natural protein, E. coli, UniProt P39838 1-890, looked up)
chain: MRQKETTATTRFSLLPGSITRFFLLLIIVLLVTMGVMVQSAVNAWLKDKSYQIVDITHAIQKRVDNWRYVTWQIYDNIAATTSPSSGEGLQETRLKQDVYYLEKPRRKTEALIFGSHDNSTLEMTQRMSTYLDTLWGAENVPWSMYYLNGQDNSLVLISTLPLKDLTSGFKESTVSDIVDSRRAEMLQQANALDERESFSNMRRLAWQNGHYFTLRTTFNQPGHLATVVAFDLPINDLIPPGMPLDSFRLEPDATATGNNDNEKEGTDSVSIHFNSTKIEISSALNSTDMRLVWQVPYGTLLLDTLQNILLPLLLNIGLLALALFGYTTFRHFSSRSTENVPSTAVNNELRILRAINEEIVSLLPLGLLVHDQESNRTVISNKIADHLLPHLNLQNITTMAEQHQGIIQATINNELYEIRMFRSQVAPRTQIFIIRDQDREVLVNKKLKQAQRLYEKNQQGRMIFMKNIGDALKEPAQSLAESAAKLNAPESKQLANQADVLVRLVDEIQLANMLADDSWKSETVLFSVQDLIDEVVPSVLPAIKRKGLQLLINNHLKAHDMRRGDRDALRRILLLLMQYAVTSTQLGKITLEVDQDESSEDRLTFRILDTGEGVSIHEMDNLHFPFINQTQNDRYGKADPLAFWLSDQLARKLGGHLNIKTRDGLGTRYSVHIKMLAADPEVEEEEERLLDDVCVMVDVTSAEIRNIVTRQLENWGATCITPDERLISQDYDIFLTDNPSNLTASGLLLSDDESGVREIGPGQLCVNFNMSNAMQEAVLQLIEVQLAQEEVTESPLGGDENAQLHASGYYALFVDTVPDDVKRLYTEAATSDFAALAQTAHRLKGVFAMLNLVPGKQLCETLEHLIREKDVPGIEKYISDIDSYVKSLL
notes: RcsD, phosphotransfer protein of the Rcs phosphorelay, inner membrane protein, 890 aa; Two fusions of the same protein, each chain with ONE of the two tags: T25 (pEAW8) or T18 (pEAW7); also called RcsD-T25; RcsD-T18; source: bacterial two-hybrid (BACTH) fusion, expressed from a plasmid in E. coli BTH101; not shown: T25 fragment of Bordetella adenylate cyclase (Cya), C-terminal, kept; T18 fragment …
B2: IgaA fused to the T18 or the T25 fragment of adenylate cyclase (natural protein, E. coli, UniProt P45800 1-711, looked up)
chain: MSTIVIFLAALLACSLLAGWLIKVRSRRRQLPWTNAFADAQTRKLTPEERSAVENYLESLTQVLQVPGPTGASAAPISLALNAESNNVMMLTHAITRYGISTDDPNKWRYYLDSVEVHLPPFWEQYINDENTVELIHTDSLPLVISLNGHTLQEYMQETRSYALQPVPSTQASIRGEESEQIELLNIRKETHEEYALSRPRGLREALLIVASFLMFFFCLITPDVFVPWLAGGALLLLGAGLWGLFAPPAKSSLREIHCLRGTPRRWGLFGENDQEQINNISLGIIDLVYPAHWQPYIAQDLGQQTDIDIYLDRHVVRQGRYLSLHDEVKNFPLQHWLRSTIIAAGSLLVLFMLLFWIPLDMPLKFTLSWMKGAQTIEATSVKQLADAGVRVGDTLRISGTGMCNIRTSGTWSAKTNSPFLPFDCSQIIWNDARSLPLPESELVNKATALTEAVNRQLHPKPEDESRVSASLRSAIQKSGMVLLDDFGDIVLKTADLCSAKDDCVRLKNALVNLGNSKDWDALVKRANAGKLDGVNVLLRPVSAESLDNLVATSTAPFITHETARAAQSLNSPAPGGFLIVSDEGSDFVDQPWPSASLYDYPPQEQWNAFQKLAQMLMHTPFNAEGIVTKIFTDANGTQHIGLHPIPDRSGLWRYLSTTLLLLTMLGSAIYNGVQAWRRYQRHRTRMMEIQAYYESCLNPQLITPSESLIE
notes: IgaA (E. coli homolog, gene yrfF), five-pass inner membrane protein; Two fusions of the same protein, each chain with ONE of the two tags: T18 (pEAW1) or T25 (pEAW2); also called YrfF; IgaA-T18; source: bacterial two-hybrid (BACTH) fusion, expressed from a plasmid in E. coli BTH101; not shown: T18 fragment of Bordetella adenylate cyclase (Cya), C-terminal, kept; T25 fragment of Bordetella …

Legend:
[1] = molecular target: B2; experiment: two-hybrid; bacterial adenylate cyclase two-hybrid (BACTH): T18 and T25 fragments fused C-terminally to the two proteins, two plasmids in cyaA deficient E. coli BTH101; beta-galactosidase activity (Miller units) against fusion plus empty cognate vector as background; threshold for reliable interaction 4x over background; IgaA/RcsD also tested in rcsB, rcsC, rcsF and rcsD mutant hosts; in the rows the T25 fusion is …; settings: partners not purified
[2] = molecular target: B1; experiment: as above; settings: partners not purified

B1
beta-galactosidase activity, fold over either fusion paired with an empty cognate vector [1]: ~20 fold | beta-galactosidase level, fold over the single construct (background) controls [1]: > 30 fold

B2
beta-galactosidase activity [2]: ≥ 1000 Miller units | beta-galactosidase activity, fold over either fusion paired with an empty cognate vector [2]: ~20 fold
